Experimental data published in publication PMC9727766 (bioRxiv, 2022).

How the values were obtained:
[1] = molecular target: T1, SARS-CoV-2 S protein, C-terminally truncated (pSARS-CoV2-S_trunc), ancestral, on 293T cells (SARS-CoV-2 ancestral (Wuhan), UniProt P0DTC2); test: cell-based or functional assay
[2] = molecular target: T1, SARS-CoV-2 S protein, C-terminally …; test: flow cytometry on cells
[3] = molecular target: SARS-CoV-2 fusion peptide (FP) peptide 812…831 (SARS-CoV-2 ancestral, Biotin-Ahx at the N-terminus; C-terminal amidation); test: crystal structure

B1: fp.006 monoclonal antibody (IgG) (antibody, V domains shown)
VH: EVQLVESGGGVVQPGGSLRLSCAASGFNFNNYALHWVRQAPGKGLEWVAIISYEARNKKYGVSVMGRFSISRDNSKSIMYLEMNSLRVEDTGVYYCARDLFLSDYDRSGYDPTRGGFDHWGQGTLVTVSS
VL: EIVMTQSPATLSVSPGERATLSCRASQSVSSSLAWYQHRFGQAPRLLISGASTRATGIPGRFSGSGSGTEFTLTISSLQSEDVAVYYCQQYGDWPLVTFGGGTKVEIK
- IC50 of neutralisation of SARS-CoV-2 pseudovirus (ancestral) [1]: 737 ng/mL
- fold increase of binding with soluble ACE2 [2]: 5.8 fold

B2: fp.006 Fab (Fab, V domains shown)
VH: B1 VH
VL: B1 VL
- binding result [3]: binds

B3: sd1.040 monoclonal antibody (IgG) (antibody, V domains shown)
VH: QVQLVQSGAEVKKPGASVKVSCKASGYTFTSFYIHWVRQAPGQGLEWMGIIDPSGGSTSYPQKFQGRVTMTRDTSTSTVYMDLSSLRSEDTAVYYCTRDGSAGDNSWFDPWGQGTLVTVSS
VL: not shown
- IC50 of neutralisation of SARS-CoV-2 pseudovirus (ancestral) [1]: 245 ng/mL
